Experimental data reported in patent US20220177531A1 (NEW YORK UNIVERSITY, published 2022).

Legend:
[1] = target: KRAS(G12V) in cells (endogenous in PATU8902 and H441) (UniProt P01116-2 1-185, limits assumed)
[2] = target: T1, KRAS(G12D), GTPγS-bound (Meleagris gallopavo (Wild turkey), UniProt P79800 1-174, GTPγS bound non-covalently; biotin on the N-terminal Avi-tag, and the tag is not in the letters); experiment: yeast display titration, flow cytometry
T1 construct: Loaded with GTPγS; tagged and biotinylated in the yeast-display assay

[3] = target: T2, KRAS(G12D), GDP-bound (Meleagris gallopavo (Wild turkey), UniProt P79800 1-174, GDP bound non-covalently; biotin on the N-terminal Avi-tag, and the tag is not in the letters); experiment: yeast display titration, flow cytometry
T2 construct: Same protein as m17, loaded with GDP

[4] = target: T3, KRAS(G13D), GTPγS-bound (Meleagris gallopavo (Wild turkey), UniProt P79800 1-174, GTPγS bound non-covalently; biotin on the N-terminal Avi-tag, and the tag is not in the letters); experiment: yeast display titration, flow cytometry
T3 construct: Loaded with GTPγS; tagged and biotinylated in the yeast-display assay

[5] = target: T4, KRAS(G13D), GDP-bound (Meleagris gallopavo (Wild turkey), UniProt P79800 1-174, GDP bound non-covalently; biotin on the N-terminal Avi-tag, and the tag is not in the letters); experiment: yeast display titration, flow cytometry
T4 construct: Same protein as m19, loaded with GDP

B1: Monobody 12VC1 (designed binder)
chain: VSSVPTKLEVVAATPTSLLISWDAPAVTVFFYVITYGETGHGVGAFQAFKVPGSKSTATISGLKPGVDYTITVYARGYSKQGPYKPSPISINYRT
FoldChange [1]: 1360 | binding result [2]: no binding (tested: 100 nM) | binding result [3]: no binding (tested: 100 nM) | binding result [4]: no binding (tested: 100 nM) | binding result [5]: no binding (tested: 100 nM)
